# B1: 4055860 (peptide)
# chain: CAPLEPVYPGDNATPEQMAQYAADLRRYINMLTRPRYCAPLEPVYPGDNATPEQMAQYAADLRRYINMLTRPRY
# modifications: synthetic hPP analogue peptide
# System: Male C57BL/6 mice
# Assay: In vivo food intake experiments in mice (half-life in the blood judged from appetite suppression)
# Set-up: species or system mouse
# Settings: comparator native human PP; judged from food intake reduction in mice (4-8 h, 0-24 h, 4:1 or 24:1 ratio)
# Description: In Vivo Food Intake Experiments
# Male C57BL/6 mice (20-30 g) were used for all mouse experiments. Mice were individually housed in IVC cages. Animals were randomized by weight and fasted overnight for 16 hrs before intraperitoneal injection at 9 am. All peptide solutions were prepared freshly the morning of the study and injected as 100 ul. Food intake was measured at 1, 2, 3, 4, 6, 8 and 24 hours post injection. The peptide was dosed at 30 nmol/kg, 50 nmol/kg, 100 nmol/kg, 120 nmol/kg, 150 nmol/kg, 300 nmol/kg, 600 nmol/kg or 1000 nmol/kg depending on the activity. In each case, a control of saline and a control of unmodified human Pancreatic Polypeptide was carried out. All statistics are calculated using a one-way ANOVA with Dunnett's post-test or one-way ANOVA with Bonferroni post-test.
# A control of saline was used.
# FIG. 2 and in the comparative graph of FIG. 3. […] It is hypothesized that that is as a possible result of stronger activity at the receptor and longer activity.
# The mouse is a good model for degradation rates in humans, irrespective of the fact that the receptors for PP in mice are different from the human receptor.
molecule,measurement,value
B1,half-life in the blood compared with native human PP,longer half life

# Source: US20100279930A1, “HUMAN PANCREATIC POLYPEPTIDE (HPP) ANALOGUES AND THEIR EFFECTS ON FEEDING BEHAVIOUR” (priority 2007, published 2010)
